Reference: PMC4736712, “Direct α-synuclein promoter transactivation by the tumor suppressor p53”

B1: alpha-syn promoter probe (p53 half-site) (dsDNA)
DNA 1: CCTTTCGCTGGAGACATGCCCTTCCATCCTGTCAAAGCCC
DNA 2: GGGCTTTGACAGGATGGAAGGGCATGTCTCCAGCGAAAGG
B2: unlabeled specific competitor (comp-sp) (dsDNA)
DNA 1: B1 DNA 1
DNA 2: B1 DNA 2

Experiments:
[1] = biological target: T1, p53 (wild-type recombinant, p53r) (UniProt P04637 1-393); experiment: EMSA; 200 ng p53, 20 fmol probe; shift blocked by anti-p53 pab421 or DO1; 1X binding buffer (Promega), 100 ng poly(dI-dC), 10 mM DTT, 1 mg/ml BSA, 4 °C, 30 min; 5% native PAGE at 4 °C; salt and pH not stated; conditions: protein: commercial; chain copies: 4; label: 5' biotin; blunt
[2] = biological target: T1, p53 (wild-type recombinant, p53r); experiment: competition EMSA; 4 pmol cold competitor (200-fold excess) blocks shift of N1; 1X binding buffer (Promega), 100 ng poly(dI-dC), 10 mM DTT, 1 mg/ml BSA, 4 °C, 30 min; 5% native PAGE at 4 °C; salt and pH not stated; conditions: protein: commercial; chain copies: 4; blunt

T1 sequence (P04637 whole entry): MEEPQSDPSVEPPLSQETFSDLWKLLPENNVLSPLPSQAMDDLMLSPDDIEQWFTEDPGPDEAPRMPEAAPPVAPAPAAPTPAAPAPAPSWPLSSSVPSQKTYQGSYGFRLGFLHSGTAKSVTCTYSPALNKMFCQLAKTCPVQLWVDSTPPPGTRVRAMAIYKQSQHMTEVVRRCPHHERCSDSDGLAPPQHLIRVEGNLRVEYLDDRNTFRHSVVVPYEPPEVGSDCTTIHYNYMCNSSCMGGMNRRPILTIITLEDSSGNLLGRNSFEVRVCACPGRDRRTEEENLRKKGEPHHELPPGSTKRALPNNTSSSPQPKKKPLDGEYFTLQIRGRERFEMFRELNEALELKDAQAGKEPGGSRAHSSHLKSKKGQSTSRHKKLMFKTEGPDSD

Binder | binding result [1] | binding result [2]
B1 | binds | –
B2 | – | binds
